Source: patent US20240115742A1, “FLUORINATED FIBERS FOR MULTIMODAL 1H AND 19F MRI, ULTRASOUND, FLUORESCENCE DETECTION AND CONFORMATIONAL AND TEMPERATURE DETECTION BY 19F MRS” (New York University, priority 2022, published 2024)
Square brackets hold non-standard residues; d marks the D form. Ends that are not written are not given here. LTF = trifluoroleucine

Tests used:
[1] = Curcumin binding by fluorescence spectroscopy; conditions: 15 μM protein, 1% v/v DMSO
Protocol: Drug Binding. Protein variants were bound to curcumin (CCM) in increasing CCM:protein ratios at 1:1 to 10:1. Protein was diluted to a final concentration of 15 μM before CCM solubilized in DMSO was added to the protein sample at a final 1% v/v DMSO. Samples were incubated on a thermomixer for 30 min at 300 rpm in the dark at 4° C. Samples were then removed and 300 μL of each sample was added to a 96-well solid black plate. Protein variants were excited at 420 nm and emission was read at 520 nm using a BioTek Synergy H1 microplate reader at RT. The baseline spectra of CCM, at 15-150 μM in 50 mM PB pH 4.0 containing 1% v/v DMSO, was subtracted from the fluorescence intensities of the protein-CCM at corresponding concentrations. Resulting normalized relative fluorescence intensities were analyzed using Specific binding kinetics in GraphPad Prism (GraphPad Software).
Curcumin Binding. CCM was bound to Q2LTF. […] Samples were loaded onto a 96-well black plate and excited at 420 nm and emission was read at 520 nm using a BioTek Synergy H1 microplate reader at room temperature (RT). Normalized relative fluorescence intensities were calculated and analyzed in Graphpad Prism (GraphPad Software). Binding affinity was calculated using the specific binding kinetics equation.

[2] = Linear regression model predictions; conditions: from 181.7 nm fiber diameter
Protocol: A linear model was previously established correlating the increase in thermostability upon binding CCM, and the loss of ordered structure as measured by ATR-FTIR. Based on this model, a 14.5% loss of structure is predicted, which translates to an error of just 0.4% from a measured structure loss of 14.1%, within the root mean squared error (RMSE) of the model, which is calculated here to be 0.9%. […] While CCM-binding imposes a negative impact on the ordered structure of the coiled-coil, a loss of secondary structure measured by ATR-FTIR has been associated with a positive interaction of CCM in the hydrophobic pore, which helps stabilize the protein and increase thermostability. Thus, the fluorination of Q2LTF results in a strengthened interaction with CCM.
Binding of CCM causes fiber thickening of Q2LTF (FIG. 34d, 44), consistent with recent analysis of supramolecular coiled-coil fibers. Fiber-thickening by CCM has been established for collagen activity as well as coiled-coil fibers and is explained by increased solvation of polar groups and burying of the hydrophobic residues leading to increased surface activity. […] While this relationship was assessed for non-fluorinated CCM fibers, the predicted fiber diameter is […] based on a 181.7 nm Q2LTF fiber diameter translating to an error of […], just outside our model's root mean squared error (RMSE) of […] (FIG. 45). […]

[3] = Q, previous results; cited from earlier work
[4] = Passive microrheology (multiple particle tracking); assay type: physicochemical; conditions: 4 °C
Protocol: Microrheology. Protein was concentrated to 2 mM, as measured by BCA assay, and immediately aliquoted 27.7 μL into a 200 μL PCR tube. 1% v/v (or 0.3 μL) of […] red polystyrene fluorometric beads (FluoSpheres) were then added to the sample. A glass capillary tube was then loaded with sample by capillary action and sealed to prevent evaporation while being affixed to a microscopy slide using two-component fast-curing epoxy (JB Weld). Samples were then imaged at 0 h as a starting measurement and then every 12 h using a Leica DMI4000b inverted microscope equipped with a Leica DFC310 FX 1.4 megapixel camera at 40× magnification with 2×2 binning. […] Each image series was recorded for a total of 300 frames with a lag time (i) of 0.037 s between each frame. Relaxation exponents i.e. the logarithmic slopes of particle mean-squared displacements (MSDs) with respect to lag time as determined by multiple particle tracking (MPT) analysis were used to determine when equilibration of the hydrogel was complete and measurements were no longer recorded (60 h in this case). […]
Gelation kinetics of the hydrogels were assessed using passive microrheology (FIG. 61a-e). Time to gelation was measured immediately after concentration to 2 mM at 4° C. by incubating with 1 μm fluorescent tracer beads added to the protein in solution state at a final concentration of 1% (v/v). […]

Substance: Q2LTF: protein-engineered fluorinated coiled-coil fiber, Q2 with trifluoroleucine, SEQ ID NO: 20 (MRGSHHHHHHGSIEGRVKE[LTF][LTF]F[LTF]KKTAEQM[LTF]EE[LTF]KETNKA[LTF]HDVRH[LTF][LTF]ENQSK[LTF]; ends and bridges not checked) [Protein Q2LTF]
- Kd [1]: 0.06 μM:μM [protein:CCM]
- predicted CCM-thickened fiber diameter [2]: 12.9 μm

Substance: Q: rationally designed pentameric coiled-coil derived from C, SEQ ID NO: 23 (MRGSHHHHHHGSIEGRVKEITFLKNTAPQMLRELQETNAALQDVRELLRQQSKL) [reference compound]
- α-helical secondary structure upon gelation [3]: 52%

Substance: Q5: Q hydrogel variant from Rosetta Monte Carlo search, SEQ ID NO: 14 (MRGSHHHHHHGSIEGRVKEITFIKKTIEQIAEEMKEINKAIHDIRHALENISKK) [Protein Q5]
- time to complete gelation (sol-gel transition) [4]: ≤ 24 h
